Experimental data: the supplement of paper PMC10065799, “High-throughput profiling of sequence recognition by tyrosine kinases and SH2 domains using bacterial peptide display” (eLife, 2023)

Key:
Grb2 SH2 = Grb2 SH2 (UniProt P62993); assay: SH2 binding enrichment of the phosphorylated peptide, bacterial display (enrichment ratio); higher = better substrate or ligand; peptides without Tyr show the background
c-Src SH2 = assay: as above
SHP2-C SH2 = assay: as above
Hck = Hck (UniProt P08631); assay: phosphorylation enrichment, bacterial display (enrichment ratio); higher = better substrate or ligand; peptides without Tyr show the background
EPHB2 = EPHB2 (UniProt P29323); assay: as above
Jak2 = Jak2 (UniProt O60674); assay: as above
Fer (mouse) = assay: as above
FGFR3 = FGFR3 (UniProt P22607); assay: as above
AncSZ = assay: as above
FGFR1 = FGFR1 (UniProt P11362); assay: as above
c-Src = assay: as above
MERTK = MERTK (UniProt Q12866); assay: as above
EPHB1 = EPHB1 (UniProt P54762); assay: as above
Fyn = Fyn (UniProt P06241); assay: as above
Fes = Fes (UniProt P07332); assay: as above
c-Abl (mouse) = assay: as above
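Wherever SH2 binding enrichment of the phosphorylated peptide, bacterial display is given: peptide library displayed on the E. coli surface as eCPX fusions, selected cells deep-sequenced, score is each peptide's frequency after selection divided by its frequency in the input.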
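Wherever phosphorylation enrichment, bacterial display is given: 11-residue human phosphosite peptides and single-mutation variants displayed on the E. coli surface, counted by deep sequencing, each peptide's frequency after selection divided by its frequency in the unselected input library; frequency after pTyr selection over input frequency; kinase dosed for 20-30% of maximal phosphorylation in three min.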

Sequence of Fes (P07332 whole entry, looked up): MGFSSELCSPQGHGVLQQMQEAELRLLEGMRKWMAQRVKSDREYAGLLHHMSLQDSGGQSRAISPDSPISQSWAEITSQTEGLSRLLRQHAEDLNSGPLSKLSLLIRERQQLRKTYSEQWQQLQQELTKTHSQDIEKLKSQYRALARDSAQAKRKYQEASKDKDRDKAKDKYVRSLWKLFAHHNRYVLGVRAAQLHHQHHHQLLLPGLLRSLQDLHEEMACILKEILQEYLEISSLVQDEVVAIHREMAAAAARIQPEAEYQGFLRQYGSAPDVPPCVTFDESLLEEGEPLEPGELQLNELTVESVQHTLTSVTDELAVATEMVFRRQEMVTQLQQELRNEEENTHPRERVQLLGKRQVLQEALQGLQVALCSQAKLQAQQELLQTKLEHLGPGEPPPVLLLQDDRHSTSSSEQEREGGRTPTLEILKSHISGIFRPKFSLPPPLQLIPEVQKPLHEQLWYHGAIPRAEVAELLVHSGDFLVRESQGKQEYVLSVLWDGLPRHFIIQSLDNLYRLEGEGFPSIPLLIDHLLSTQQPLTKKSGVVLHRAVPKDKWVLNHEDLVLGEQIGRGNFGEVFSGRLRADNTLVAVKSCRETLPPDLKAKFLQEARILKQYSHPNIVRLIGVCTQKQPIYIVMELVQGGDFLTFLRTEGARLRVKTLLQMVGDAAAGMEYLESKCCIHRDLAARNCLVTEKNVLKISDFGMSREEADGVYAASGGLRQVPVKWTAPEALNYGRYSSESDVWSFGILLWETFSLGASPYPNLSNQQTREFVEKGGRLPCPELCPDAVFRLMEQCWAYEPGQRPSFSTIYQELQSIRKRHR
Sequence of Hck (P08631 whole entry, looked up): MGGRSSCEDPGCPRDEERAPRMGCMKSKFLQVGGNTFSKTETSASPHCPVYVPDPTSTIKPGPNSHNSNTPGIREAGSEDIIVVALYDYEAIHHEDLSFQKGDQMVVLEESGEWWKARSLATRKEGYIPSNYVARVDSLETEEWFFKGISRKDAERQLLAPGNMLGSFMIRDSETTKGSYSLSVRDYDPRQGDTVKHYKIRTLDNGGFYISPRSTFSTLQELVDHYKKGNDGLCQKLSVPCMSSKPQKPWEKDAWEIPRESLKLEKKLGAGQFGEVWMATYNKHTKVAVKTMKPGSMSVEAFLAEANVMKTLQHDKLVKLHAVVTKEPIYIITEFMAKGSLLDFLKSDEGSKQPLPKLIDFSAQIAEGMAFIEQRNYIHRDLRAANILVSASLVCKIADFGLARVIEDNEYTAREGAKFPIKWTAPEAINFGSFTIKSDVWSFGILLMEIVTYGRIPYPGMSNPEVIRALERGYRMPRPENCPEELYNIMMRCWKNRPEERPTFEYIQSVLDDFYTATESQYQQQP
Sequence of MERTK (Q12866 whole entry, looked up): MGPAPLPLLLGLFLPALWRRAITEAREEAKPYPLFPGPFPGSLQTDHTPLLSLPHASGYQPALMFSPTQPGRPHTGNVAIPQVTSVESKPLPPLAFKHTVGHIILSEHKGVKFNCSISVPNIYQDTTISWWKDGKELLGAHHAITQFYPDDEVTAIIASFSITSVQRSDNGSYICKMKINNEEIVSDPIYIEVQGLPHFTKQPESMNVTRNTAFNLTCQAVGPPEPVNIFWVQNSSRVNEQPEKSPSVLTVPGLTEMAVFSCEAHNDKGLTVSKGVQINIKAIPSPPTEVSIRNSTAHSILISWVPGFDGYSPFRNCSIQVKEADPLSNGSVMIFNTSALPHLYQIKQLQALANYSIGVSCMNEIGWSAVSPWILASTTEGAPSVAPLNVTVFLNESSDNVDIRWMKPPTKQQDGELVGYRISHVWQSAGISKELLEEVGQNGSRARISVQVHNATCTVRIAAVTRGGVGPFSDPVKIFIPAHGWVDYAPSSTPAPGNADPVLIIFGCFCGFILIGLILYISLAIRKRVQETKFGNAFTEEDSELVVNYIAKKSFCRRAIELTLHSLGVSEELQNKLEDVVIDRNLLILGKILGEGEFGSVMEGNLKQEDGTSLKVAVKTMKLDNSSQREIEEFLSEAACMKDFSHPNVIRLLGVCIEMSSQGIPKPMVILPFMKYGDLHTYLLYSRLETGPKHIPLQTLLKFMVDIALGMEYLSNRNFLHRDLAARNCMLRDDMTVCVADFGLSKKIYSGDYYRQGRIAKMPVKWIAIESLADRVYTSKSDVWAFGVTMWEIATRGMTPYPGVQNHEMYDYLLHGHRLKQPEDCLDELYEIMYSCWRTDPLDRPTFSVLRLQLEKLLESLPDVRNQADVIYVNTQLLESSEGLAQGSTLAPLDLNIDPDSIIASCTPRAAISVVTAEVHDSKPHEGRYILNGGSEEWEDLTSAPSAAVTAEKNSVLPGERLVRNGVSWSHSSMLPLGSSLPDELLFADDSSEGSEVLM
Sequence of Jak2 (O60674 whole entry, looked up): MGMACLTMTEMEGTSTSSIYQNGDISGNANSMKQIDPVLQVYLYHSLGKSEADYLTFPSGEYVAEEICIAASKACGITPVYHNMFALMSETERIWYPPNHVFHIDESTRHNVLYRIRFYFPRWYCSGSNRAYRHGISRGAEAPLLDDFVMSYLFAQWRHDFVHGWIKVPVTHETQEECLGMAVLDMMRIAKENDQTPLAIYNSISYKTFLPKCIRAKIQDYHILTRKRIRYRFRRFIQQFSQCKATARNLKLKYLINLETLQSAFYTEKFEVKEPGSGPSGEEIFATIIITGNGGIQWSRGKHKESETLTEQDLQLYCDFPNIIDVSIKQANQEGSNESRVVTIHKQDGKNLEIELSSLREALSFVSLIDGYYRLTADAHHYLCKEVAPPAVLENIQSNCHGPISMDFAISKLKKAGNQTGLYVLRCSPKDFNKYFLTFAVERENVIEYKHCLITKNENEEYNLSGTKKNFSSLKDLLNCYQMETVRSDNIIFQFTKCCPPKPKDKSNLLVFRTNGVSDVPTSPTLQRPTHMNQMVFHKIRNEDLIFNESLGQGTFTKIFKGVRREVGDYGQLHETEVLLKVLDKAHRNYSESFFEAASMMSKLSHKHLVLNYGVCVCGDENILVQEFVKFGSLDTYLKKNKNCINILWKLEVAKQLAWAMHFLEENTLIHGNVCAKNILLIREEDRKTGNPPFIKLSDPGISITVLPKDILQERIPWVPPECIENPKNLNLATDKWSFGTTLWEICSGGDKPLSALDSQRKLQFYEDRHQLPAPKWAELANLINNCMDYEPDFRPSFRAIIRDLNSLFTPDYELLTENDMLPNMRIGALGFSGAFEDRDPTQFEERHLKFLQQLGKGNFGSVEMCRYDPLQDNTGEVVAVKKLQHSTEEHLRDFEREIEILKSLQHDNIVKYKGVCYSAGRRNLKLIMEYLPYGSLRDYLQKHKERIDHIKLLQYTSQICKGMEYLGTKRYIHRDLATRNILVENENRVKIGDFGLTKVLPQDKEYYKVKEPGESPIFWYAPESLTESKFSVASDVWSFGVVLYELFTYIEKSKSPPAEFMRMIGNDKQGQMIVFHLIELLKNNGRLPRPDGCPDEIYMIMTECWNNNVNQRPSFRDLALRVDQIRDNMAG
Sequence of EPHB1 (P54762 whole entry, looked up): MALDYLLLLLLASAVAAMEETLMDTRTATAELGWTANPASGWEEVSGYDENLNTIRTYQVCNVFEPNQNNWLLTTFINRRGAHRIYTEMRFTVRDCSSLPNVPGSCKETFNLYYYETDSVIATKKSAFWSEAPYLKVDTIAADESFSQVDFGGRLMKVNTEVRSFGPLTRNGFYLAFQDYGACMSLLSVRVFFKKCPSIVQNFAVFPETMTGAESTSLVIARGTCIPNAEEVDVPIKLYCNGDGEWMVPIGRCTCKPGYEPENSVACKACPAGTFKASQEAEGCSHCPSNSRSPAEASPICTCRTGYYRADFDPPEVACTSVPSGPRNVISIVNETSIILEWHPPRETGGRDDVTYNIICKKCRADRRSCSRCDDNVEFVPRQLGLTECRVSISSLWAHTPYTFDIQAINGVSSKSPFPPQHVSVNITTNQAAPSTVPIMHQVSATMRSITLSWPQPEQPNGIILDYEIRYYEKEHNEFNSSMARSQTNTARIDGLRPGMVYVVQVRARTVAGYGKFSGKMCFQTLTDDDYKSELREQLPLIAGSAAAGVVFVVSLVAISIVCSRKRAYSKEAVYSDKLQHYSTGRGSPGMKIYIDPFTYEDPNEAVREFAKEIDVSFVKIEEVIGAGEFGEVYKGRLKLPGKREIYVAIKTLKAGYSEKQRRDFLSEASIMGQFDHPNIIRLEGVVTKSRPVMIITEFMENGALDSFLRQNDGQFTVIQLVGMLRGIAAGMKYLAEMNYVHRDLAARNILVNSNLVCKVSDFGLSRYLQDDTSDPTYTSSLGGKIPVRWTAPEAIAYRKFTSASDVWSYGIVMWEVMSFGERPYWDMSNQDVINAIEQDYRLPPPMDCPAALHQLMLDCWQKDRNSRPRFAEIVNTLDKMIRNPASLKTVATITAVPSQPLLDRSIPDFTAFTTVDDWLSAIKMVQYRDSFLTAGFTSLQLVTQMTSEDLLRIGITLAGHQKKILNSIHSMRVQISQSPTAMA
Sequence of Fyn (P06241 whole entry, looked up): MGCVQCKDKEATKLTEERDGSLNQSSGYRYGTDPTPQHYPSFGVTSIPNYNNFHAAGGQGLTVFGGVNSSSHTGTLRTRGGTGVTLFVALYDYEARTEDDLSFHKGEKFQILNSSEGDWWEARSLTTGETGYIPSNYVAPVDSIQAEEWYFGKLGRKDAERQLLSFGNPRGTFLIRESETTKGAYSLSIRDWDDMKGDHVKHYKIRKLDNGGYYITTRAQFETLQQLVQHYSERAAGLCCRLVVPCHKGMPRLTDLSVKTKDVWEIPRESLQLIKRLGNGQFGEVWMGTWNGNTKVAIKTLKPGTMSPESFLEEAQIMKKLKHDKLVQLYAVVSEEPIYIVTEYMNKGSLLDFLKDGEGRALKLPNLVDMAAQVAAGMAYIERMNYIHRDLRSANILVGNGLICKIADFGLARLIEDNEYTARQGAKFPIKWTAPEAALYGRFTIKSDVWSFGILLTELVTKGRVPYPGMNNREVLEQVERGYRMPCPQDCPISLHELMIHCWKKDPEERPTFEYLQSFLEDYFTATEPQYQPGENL

Row | Sequence | SH2 binding enrichment (Grb2 SH2) | SH2 binding enrichment (c-Src SH2) | SH2 binding enrichment (SHP2-C SH2) | phosphorylation enrichment (Hck) | phosphorylation enrichment (EPHB2) | phosphorylation enrichment (Jak2) | phosphorylation enrichment (Fer (mouse)) | phosphorylation enrichment (FGFR3) | phosphorylation enrichment (AncSZ) | phosphorylation enrichment (FGFR1) | phosphorylation enrichment (c-Src) | phosphorylation enrichment (MERTK) | phosphorylation enrichment (EPHB1) | phosphorylation enrichment (Fyn) | phosphorylation enrichment (Fes) | phosphorylation enrichment (c-Abl (mouse))
1 | EVKEAYMGNVL [ACAT1_Y90] | 0.881 | 0.542 | 0.699 | 0.42 | 0.593 | 0.626 | 0.528 | 0.505 | 0.804 | 0.596 | 0.402 | 0.444 | 0.341 | 0.474 | 0.848 | 0.506
2 | EYGRRYGFSCQ [CCDC93_Y209_R213C] | 0.725 | 0.418 | 0.492 | 0.617 | 0.594 | 1.2 | 0.526 | 0.696 | 0.931 | 0.526 | 0.483 | 0.476 | 0.59 | 0.53 | 1.12 | 0.881
3 | EYQKKYSDADI [CKAP5_Y1860_K1857Q] | 1 | 0.473 | 0.808 | 0.383 | 0.481 | 0.841 | 0.597 | 0.589 | 0.913 | 0.46 | 0.45 | 0.432 | 0.491 | 0.37 | 0.998 | 0.706
4 | FAELVYTGFWH [ASS1_Y322] | 0.87 | 0.524 | 0.698 | 6 | 2.59 | 1.67 | 6.97 | 1.85 | 1.54 | 2.22 | 7.01 | 6.23 | 2.21 | 8.14 | 1.41 | 8.78
5 | FARNSYVAGQY [G6PD_Y107] | 0.826 | 0.495 | 0.651 | 0.385 | 0.4 | 0.502 | 0.347 | 0.415 | 0.516 | 0.403 | 0.535 | 0.405 | 0.322 | 0.389 | 0.544 | 0.449
6 | FETVKYFNNER [ABCB7_Y345_YF] | 0.862 | 0.509 | 1.04 | 0.381 | 0.445 | 0.702 | 0.465 | 0.606 | 0.828 | 0.417 | 0.345 | 0.288 | 0.564 | 0.39 | 0.898 | 0.567
7 | FFTEEYVRAHP [DOCK2_Y1555_D1558A] | 0.728 | 0.431 | 0.619 | 0.599 | 0.664 | 1.07 | 0.553 | 0.944 | 1.54 | 0.556 | 0.485 | 0.397 | 0.66 | 0.697 | 1.32 | 1.01
8 | FGSLLYKFAFK [FANCD2_Y458_YF] | 0.983 | 0.449 | 0.732 | 0.37 | 0.445 | 0.964 | 0.336 | 0.678 | 0.91 | 0.527 | 0.453 | 0.4 | 0.464 | 0.306 | 1.09 | 0.726
9 | FGSVDCWEKFF [EEF1AKNMT_Y16_Y16C] | 0.944 | 0.83 | 1.03 | 0.426 | 0.624 | 1.04 | 0.462 | 0.569 | 1.14 | 0.511 | 0.461 | 0.459 | 0.474 | 0.436 | 1.24 | 0.801
10 | FLTQHYDAEPQ [ANG_Y38_K41E] | 0.992 | 0.612 | 0.635 | 0.534 | 0.554 | 0.627 | 0.511 | 0.684 | 0.853 | 0.583 | 0.601 | 0.502 | 0.413 | 0.478 | 0.989 | 0.785
11 | FQGGTYSKACT [FGG_Y380_S384C_YF] | 0.918 | 0.783 | 0.746 | 0.473 | 0.366 | 0.503 | 0.46 | 0.439 | 0.528 | 0.448 | 0.447 | 0.446 | 0.404 | 0.35 | 0.589 | 0.633
12 | FQNSLYAPDFS [FAM92A_Y226_R222Q_YF] | 0.891 | 0.591 | 0.614 | 2.12 | 4.54 | 1.08 | 3.35 | 1.47 | 0.9 | 1.48 | 2.18 | 7.8 | 4.07 | 2.08 | 0.945 | 0.781
13 | FRASFYRKGGC [ALK_Y1283_YF] | 0.616 | 0.499 | 0.502 | 0.477 | 0.527 | 0.683 | 0.466 | 0.532 | 0.866 | 0.531 | 0.586 | 0.579 | 0.459 | 0.618 | 0.902 | 0.663

The next lines start with results.

Row | SH2 binding enrichment (Grb2 SH2) | SH2 binding enrichment (c-Src SH2) | SH2 binding enrichment (SHP2-C SH2) | Sequence | phosphorylation enrichment (Hck) | phosphorylation enrichment (EPHB2) | phosphorylation enrichment (Jak2) | phosphorylation enrichment (Fer (mouse)) | phosphorylation enrichment (FGFR3) | phosphorylation enrichment (AncSZ) | phosphorylation enrichment (FGFR1) | phosphorylation enrichment (c-Src) | phosphorylation enrichment (MERTK) | phosphorylation enrichment (EPHB1) | phosphorylation enrichment (Fyn) | phosphorylation enrichment (Fes) | phosphorylation enrichment (c-Abl (mouse))
14 | 0.892 | 0.755 | 0.899 | EVEFEYPFRLH [SYP_Y73] | 0.509 | 0.584 | 1.5 | 0.489 | 0.724 | 1 | 0.42 | 0.588 | 0.396 | 0.564 | 0.336 | 1.37 | 0.735
15 | 0.909 | 0.532 | 0.798 | EVVGRYSVHFA [MLH1_Y183_N187Y_YF] | 0.504 | 0.49 | 0.692 | 0.424 | 0.676 | 0.92 | 0.529 | 0.436 | 0.448 | 0.612 | 0.579 | 0.978 | 0.531
16 | 0.987 | 0.547 | 0.903 | FADIAYNFRHA [PAH_Y166_G171A_YF] | 0.432 | 0.342 | 0.524 | 0.348 | 0.462 | 0.661 | 0.386 | 0.473 | 0.388 | 0.293 | 0.497 | 0.591 | 0.506
17 | 1.12 | 0.639 | 0.575 | FADIAYNYRDG [PAH_Y166_H170D] | 0.352 | 0.501 | 1.04 | 0.376 | 0.622 | 0.942 | 0.397 | 0.418 | 0.363 | 0.404 | 0.371 | 0.836 | 0.545
18 | 0.877 | 0.52 | 0.717 | FADIAYNYRHG [PAH_Y166] | 0.462 | 0.503 | 0.754 | 0.456 | 0.561 | 0.711 | 0.403 | 0.398 | 0.404 | 0.45 | 0.423 | 0.887 | 0.577
19 | 1.02 | 0.738 | 0.827 | FCRHNYGVGES [HLA-DRB1_Y112_V115G_YF] | 0.339 | 0.527 | 0.62 | 0.396 | 0.573 | 0.657 | 0.387 | 0.373 | 0.372 | 0.421 | 0.498 | 0.687 | 0.606
20 | 0.985 | 0.795 | 0.408 | FDGKEYDPVEA [MAPRE2_Y167_YF] | 0.617 | 0.545 | 1.2 | 0.631 | 0.801 | 1.5 | 0.545 | 0.573 | 0.493 | 0.636 | 0.62 | 1.43 | 0.924
21 | 0.917 | 0.586 | 0.688 | FDSPFYQDSLP [TSC1_Y508_R509Q] | 0.521 | 0.489 | 0.805 | 2.88 | 0.599 | 0.848 | 0.357 | 0.473 | 0.431 | 0.503 | 0.482 | 1.09 | 0.737
22 | 0.799 | 0.603 | 0.858 | FEEDSYVKRSQ [RET_Y905_YF] | 0.487 | 0.492 | 0.881 | 0.41 | 0.552 | 0.904 | 0.41 | 0.47 | 0.417 | 0.52 | 0.523 | 1.11 | 0.645
23 | 0.433 | 0.42 | 0.586 | FFCKFYNKSED [RYR1_Y4864_R4861C] | 0.552 | 0.601 | 1.62 | 0.598 | 0.939 | 1.3 | 0.536 | 0.489 | 0.395 | 0.712 | 0.426 | 1.74 | 1.09
24 | 0.831 | 0.631 | 1.36 | FFFDLYGGEKF [PTPN11_Y66_D61Y_YF] | 0.981 | 0.418 | 0.993 | 0.418 | 0.534 | 0.923 | 0.415 | 1.15 | 0.371 | 0.53 | 0.66 | 0.979 | 0.665
25 | 0.907 | 0.738 | 1.03 | FFRCHYPLTTL [TNS4_Y644_R642C] | 0.48 | 0.512 | 0.79 | 0.39 | 0.696 | 0.914 | 0.463 | 0.43 | 0.4 | 0.509 | 0.374 | 1.01 | 0.595
26 | 0.782 | 0.75 | 0.606 | FGGRDYSLDEF [MYOF_Y1705_YF] | 0.473 | 0.602 | 0.946 | 0.493 | 0.733 | 0.964 | 0.512 | 0.542 | 0.405 | 0.597 | 0.401 | 1.18 | 0.68
27 | 0.756 | 0.596 | 0.508 | FGGTVCHSPVS [PRC1_Y511_Y511C] | 0.505 | 0.493 | 0.506 | 0.452 | 0.524 | 0.688 | 0.524 | 0.576 | 0.456 | 0.38 | 0.447 | 0.627 | 0.548
28 | 1.01 | 1.24 | 0.762 | FKEQGYHRLPS [RIN1_Y681_P686S_YF] | 0.63 | 0.603 | 2.09 | 0.822 | 0.583 | 1.23 | 2.57 | 0.818 | 1.05 | 1.26 | 0.305 | 1.49 | 1.3
29 | 1.98 | 1.21 | 1.39 | FKWAVYCIIGR [NUP93_Y391_R388W_YF] | 0.699 | 0.673 | 1.03 | 1.02 | 0.714 | 1.28 | 0.614 | 0.652 | 0.534 | 1.19 | 0.554 | 1.28 | 0.902
30 | 0.785 | 0.445 | 1.46 | FLGEEYVKAVG [TF_Y674_YF] | 0.405 | 0.453 | 0.853 | 0.58 | 0.582 | 0.842 | 0.453 | 0.404 | 0.412 | 0.489 | 0.373 | 0.879 | 0.598
31 | 0.722 | 0.496 | 0.746 | FQHLRYIKQLG [SAMHD1_Y146_R143H] | 0.395 | 0.371 | 0.706 | 0.436 | 0.611 | 0.685 | 0.393 | 0.331 | 0.363 | 0.374 | 0.393 | 0.775 | 0.502
32 | 0.807 | 0.481 | 0.607 | FRQNGYIPGSN [PCDHGA1_Y895_V894G_YF] | 0.392 | 0.359 | 0.544 | 0.377 | 0.437 | 0.5 | 0.416 | 0.435 | 0.393 | 0.396 | 0.403 | 0.548 | 0.499
33 | 1.06 | 0.484 | 0.757 | FSEVRYMKEPY [HIPK4_Y170_V171M] | 0.536 | 0.496 | 0.781 | 0.437 | 0.72 | 0.852 | 0.485 | 0.432 | 0.463 | 0.425 | 0.36 | 0.988 | 0.695
